In the supplement of paper PMC10126150:
± gives the standard deviation of the averaged measurements.

system: ATP; test: switch fluorescence ratio, 500 uM ATP over buffer (Cy3 cluster intensity, sum of 5 cycles each) (fold (ratio)); higher = stronger signal-on switching upon ATP binding; sequences stand for … in TCGTCGGCAGCGTCAGATGTGTATAAGAGACAGTTTTTTTTTTTTTTTTTTTTTTTTT…TC; settings: aptamer strand: ATP DNA aptamer (quencher-CACCTGGGGGAGTATTGCGGAGGAAGG + anchor), 100 nM annealed; ATP concentration: 500 uM
Summary of the method: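 Cy3-labelled switching-strand clusters on a modified Illumina MiSeq flow-cell were annealed to 100 nM quencher-labelled ATP aptamer and imaged first in selection buffer, then after 15 min with 500 uM ATP at 22 °C. NaOH stripping and re-annealing separated each of five buffer/ATP cycles, and clusters outside 100-1000 RFU were excluded. The fluorescence ratio sums target-cycle Cy3 intensity over buffer-cycle Cy3 intensity per cluster and averages it per switch-domain sequence.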
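Further: ATP exposure 15 min at 22 °C before imaging.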

| Sequence | switch fluorescence ratio |
| --- | --- |
| TTTATTAACT | 1.06 ± 0.072 |
| TTTATTAAGG | 1 ± 0.023 |
| TTTATTAATC | 0.99544 ± 0.00085 |
| TTTATTACAT | 0.996 ± 0.014 |
| TTTATTAGGC | 0.996 ± 0.022 |
| TTTATTCGTT | 0.9784 ± 0.0063 |
| TTTATTCTG | 0.9873 ± 0.0064 |
| TTTATTTAGG | 1.04 ± 0.011 |
| TTTATTTCCT | 1.07 ± 0.04 |
| TTTATTTTAA | 0.995 ± 0.028 |
| TTTATTTTGC | 1.01 ± 0.036 |
| TTTATTTTTA | 0.986 ± 0.019 |
| TTTCAAAAGG | 1.01 ± 0.019 |
| TTTCAAAAT | 1.035 ± 0.0037 |
| TTTCAAGTTT | 1.16 ± 0.3 |
| TTTCAATGTA | 1.01 ± 0.039 |
| TTTCAATTAA | 1 ± 0.013 |
| TTTCAATTGT | 1.02 ± 0.047 |
| TTTCACAGCG | 1.01 ± 0.011 |
| TTTCAGCGGG | 1 ± 0.018 |
| TTTCAGGGCT | 1.22 ± 0.16 |
| TTTCAGTATT | 1.01 ± 0.029 |
| TTTCAGTTGG | 1.02 ± 0.015 |
| TTTCATACGA | 1.01 ± 0.045 |
| TTTCATACGG | 1.008 ± 0.0034 |

| Sequence | switch fluorescence ratio |
| --- | --- |
| TTTCATCCAA | 1.42 ± 0.48 |
| TTTCATGTCG | 0.986 ± 0.1 |
| TTTCATGTTT | 0.9683 ± 0.007 |
| TTTCATTGGG | 1.01 ± 0.032 |
| TTTCATTTGG | 1.01 ± 0.03 |
| TTTCCAAATG | 0.9847 ± 0.0059 |
| TTTCCAAGAA | 1.03 ± 0.025 |
| TTTCCATTGG | 1.03 ± 0.015 |
| TTTCCATTGT | 0.995 ± 0.048 |
| TTTCCCAGGT | 3.64 ± 2.7 |
| TTTCCCCATT | 1.012 ± 0.0066 |
| TTTCCCGTTG | 1.07 ± 0.12 |
| TTTCCGAGGG | 1.43 ± 0.63 |
| TTTCCGATGA | 1.08 ± 0.032 |
| TTTCCGGGGT | 1.28 ± 0.31 |
| TTTCCGTTTT | 1.01 ± 0.038 |
| TTTCCTAACT | 1.04 ± 0.039 |
| TTTCCTATAT | 1.08 ± 0.078 |
| TTTCCTATTG | 1.01 ± 0.027 |
| TTTCCTGGGT | 1.14 ± 0.18 |
| TTTCCTGGTA | 0.9817 ± 0.0073 |
| TTTCCTTGCC | 1.19 ± 0.024 |
| TTTCCTTGTT | 1.09 ± 0.057 |
| TTTCGACTGG | 0.996 ± 0.02 |
| TTTCGAGGGG | 1.02 ± 0.054 |

| Sequence | switch fluorescence ratio |
| --- | --- |
| TTTCGAGGGT | 1.006 ± 0.0034 |
| TTTCGATCTC | 1.028 ± 0.0026 |
| TTTCGCAACG | 1.09 ± 0.047 |
| TTTCGCAGGT | 1.24 ± 0.15 |
| TTTCGCTTTT | 1.03 ± 0.044 |
| TTTCGGAAAC | 1.1 ± 0.017 |
| TTTCGGAAAT | 1.01 ± 0.016 |
| TTTCGGAGGA | 0.991 ± 0.018 |
| TTTCGGCGCG | 1.02 ± 0.038 |
| TTTCGGGATG | 1.01 ± 0.066 |
| TTTCGGGGGA | 1.01 ± 0.032 |
| TTTCGGGTAA | 1.34 ± 0.47 |
| TTTCGGTCCC | 1.02 ± 0.021 |
| TTTCGGTCGC | 1.003 ± 0.008 |
| TTTCGGTGGC | 0.99 ± 0.072 |
| TTTCGGTTTT | 1.04 ± 0.11 |
| TTTCGTAGGA | 1.28 ± 0.35 |
| TTTCGTGGGG | 0.992 ± 0.056 |
| TTTCGTTCTT | 1.02 ± 0.03 |
| TTTCTAAATC | 0.979 ± 0.01 |
| TTTCTAAGTT | 1.03 ± 0.021 |
| TTTCTAATGC | 1.03 ± 0.014 |
| TTTCTAGGCA | 1.01 ± 0.03 |
| TTTCTATTTG | 1.02 ± 0.029 |
| TTTCTCATTC | 1.08 ± 0.12 |

| Sequence | switch fluorescence ratio |
| --- | --- |
| TTTCTCCTTT | 1.04 ± 0.035 |
| TTTCTCGATG | 1.011 ± 0.0072 |
| TTTCTCGGAG | 1.08 ± 0.084 |
| TTTCTGGAGA | 1.05 ± 0.05 |
| TTTCTGGCGG | 1.02 ± 0.025 |
| TTTCTGGGGG | 0.984 ± 0.019 |
| TTTCTGTGGG | 0.986 ± 0.016 |
| TTTCTGTGTT | 1.012 ± 0.0069 |
| TTTCTTAATT | 1.4 ± 0.59 |
| TTTCTTACGC | 1.07 ± 0.066 |
| TTTCTTAGCT | 1.005 ± 0.0046 |
| TTTCTTATGA | 0.971 ± 0.025 |
| TTTCTTATTG | 1.031 ± 0.0085 |
| TTTCTTGGGT | 1.04 ± 0.17 |
| TTTCTTTAAA | 1.01 ± 0.019 |
| TTTCTTTATT | 1.05 ± 0.063 |
| TTTCTTTGAA | 0.977 ± 0.018 |
| TTTGAAAAGT | 1.022 ± 0.0028 |
| TTTGAAATTA | 0.9769 ± 0.003 |
| TTTGAAGGAA | 0.986 ± 0.017 |
| TTTGAAGGGG | 1.01 ± 0.035 |
| TTTGAATAAG | 0.995 ± 0.023 |
| TTTGACATTT | 1.02 ± 0.03 |
| TTTGACCTGG | 0.981 ± 0.043 |
| TTTGACGAAT | 1.012 ± 0.0081 |
